B1: Double-stranded RNA-binding protein Staufen homolog 1, residues 183 to 249; numbered along this chain, O95793 (parent)
chain: KSEISQVFEIALKRNLPVNFEVARESGPPHMKNFVTKVSVGEFVGEGEGKSKKISKKNAAIAVLEEL

Variants of: B1
Assay: abundance fitness (aPCA) (normalised: wild type 0, dead -1); higher = more abundant; growth selection in yeast, the domain comes from the species named
Conditions: Homo sapiens

Abundance fitness of substitutions, site by site:
F8: A -0.334 | C -0.258 | D -0.408 | E -0.268 | G -0.332 | H -0.012 | K -0.135 | L -0.112 | M -0.143 | N -0.317 | P -0.457 | R -0.129 | S -0.394 | T -0.337 | V -0.203 | W 0.064 | Y 0.129
E9: A -0.057 | C -0.33 | D -0.049 | F -0.545 | G -0.433 | H -0.155 | I -0.552 | L -0.36 | M -0.317 | P -0.716 | Q -0.038 | R -0.232 | S -0.2 | T -0.197 | V -0.517 | W -0.506 | Y -0.338
I10: T -0.542
A11: C -0.825 | D -0.679 | E -0.822 | F -1.13 | G 0.035 | I -1.08 | K -0.633 | L -0.9 | M -0.913 | N -0.564 | P -0.891 | Q -0.732 | R -0.829 | S -0.358 | T -0.653 | V -0.892 | W -0.91 | Y -0.967
L12: A 0.111 | C -0.06 | D -0.047 | E -0.085 | F -0.075 | G -0.035 | H -0.032 | I -0.026 | K -0.029 | M 0.011 | N 0.081 | P -0.645 | Q 0.01 | R 0.127 | S 0.028 | T -0.155 | W -0.063 | Y 0.066
K13: A -0.019 | C -0.296 | D -0.327 | E -0.183 | F -0.436 | G -0.308 | I -0.26 | L -0.213 | M -0.213 | P -0.528 | Q -0.079 | R -0.071 | S -0.194 | T -0.246 | V -0.215 | W -0.59 | Y -0.323
R14: A -0.204 | D -0.487 | E -0.334 | F -0.232 | G -0.361 | H -0.155 | K -0.212 | L -0.139 | M 0.014 | N -0.179 | P -0.594 | Q -0.188 | S -0.31 | T -0.371 | V -0.6 | W -0.25 | Y -0.048
N15: A -0.198 | C -0.325 | D -0.156 | E -0.231 | F -0.557 | G 0.025 | H 0.006 | I -0.629 | L -0.531 | M -0.296 | Q -0.144 | R -0.155 | S -0.146 | T -0.431 | V -0.785 | Y -0.637
L16: A -0.421 | C -0.515 | D -0.54 | E -0.472 | F -0.424 | G -0.863 | H -0.708 | I -0.196 | K -0.432 | M -0.131 | N -0.716 | P -0.663 | Q -0.128 | R -0.587 | S -0.609 | T -0.594 | V -0.176 | W -0.063 | Y -0.454
P17: A -0.09 | C -0.447 | E -0.09 | G -0.24 | H -0.093 | I -0.323 | K 0.031 | L -0.196 | M -0.172 | N -0.112 | Q -0.037 | R -0.025 | S -0.008 | T 0.012 | V -0.174 | W -0.56 | Y -0.288
V18: A -0.377 | C -0.218 | D -0.746 | E -0.507 | F -0.832 | G -0.707 | K -0.562 | L -0.404 | M -0.396 | N -0.906

Source: the Human Domainome abundance scans (Beltran et al. 2025)
